Experimental data as given in article PMC4263443.

How the values were obtained:
[1] = target: recombinant S5aΔVWA (human); experiment: ITC
[2] = target: recombinant full-length S5a (human) (UniProt P55036); experiment: ITC
Chain of UniProt P55036 (P55036 whole entry): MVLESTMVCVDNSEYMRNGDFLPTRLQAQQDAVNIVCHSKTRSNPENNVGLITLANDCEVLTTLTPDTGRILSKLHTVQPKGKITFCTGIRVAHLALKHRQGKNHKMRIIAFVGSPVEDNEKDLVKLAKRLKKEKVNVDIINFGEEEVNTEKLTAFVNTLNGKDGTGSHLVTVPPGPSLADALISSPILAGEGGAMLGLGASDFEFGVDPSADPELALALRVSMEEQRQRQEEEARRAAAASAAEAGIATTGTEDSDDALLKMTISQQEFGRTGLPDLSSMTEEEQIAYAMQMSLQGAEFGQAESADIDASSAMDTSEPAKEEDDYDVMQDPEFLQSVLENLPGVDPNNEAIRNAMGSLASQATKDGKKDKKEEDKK

Kd [1] [µM] | Kd [2] [µM] | Substance
84 | – | monoubiquitin (from UniProt P0CG47 1-76) (natural protein)
– | 112 | monoubiquitin (from UniProt P0CG47 1-76) (natural protein; other documents disagree on this pair)
